The data set is described as follows: protein stability index of a GFP-peptide fusion (GPS, HEK-293T) (PSI 1-6); higher = more stable. As to conditions: c terminus: a fixed tail appended.

± gives the standard deviation.
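Further: 24-mer peptide tiles fused after GFP, lentivirally expressed, FACS-sorted into six equal bins by GFP/DsRed ratio, decoded by Illumina sequencing, PSI is the read-weighted mean bin number.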

For the sequence AAIKVNDSVPFHLGWNSTERSLRL [MYORG], the protein stability index came out at 2.61 ± 0.16 (treatment: DMSO) and 2.81 ± 0.38 (treatment: MLN4924 1 uM, 8 h).
For AALNMSLGMVTPVNDLRGSDSIAY [ADD1] the same measures were 2.48 ± 0.37 and 2.62 ± 0.22.
As to ADGGGAPPQGGCGGGGCDRYEPLP [KCNA3], the protein stability index was determined as 4.54 ± 0.32 (treatment: DMSO) and 4.75 ± 0.16 (treatment: MLN4924 1 uM, 8 h).
The matching figures for ADLLAGFGGSFMAPSPSPVTPAQN [SNAP91]: 4.16 ± 0.38 and 4.28 ± 0.24.
In turn, ADLRLGGQPAPPQLLLGRLFRWPD [SMAD6] had a protein stability index (treatment: DMSO) of 2.84 ± 0.13 and a protein stability index (treatment: MLN4924 1 uM, 8 h) of 2.83 ± 0.23.
Turning to ADWTQGLPWRFEELLTCSHWPSFF [TEX19], the protein stability index runs as follows: (treatment: DMSO) 2.54 ± 0.67; (treatment: MLN4924 1 uM, 8 h) 2.6 ± 0.58.
For AEADEPTTHFQSIPDAFWWAVVTM [KCNA4] the same measures were 2.04 ± 0.76 and 2.11 ± 0.22.
For AEAEALYSAYIRRCACAASSDESP [TTC32] the same measures were 3.25 ± 0.28 and 3.42 ± 0.3.
For AEDYLTWKEWGFTGVQEVLSALLR [SPAG8] the same measures were 2.28 ± 0.33 and 2.19 ± 0.4.
Turning to AEEFEQPTLSCEKYLTYDQLRKQK [ELOA2], the protein stability index runs as follows: (treatment: DMSO) 4.71 ± 0.31; (treatment: MLN4924 1 uM, 8 h) 4.9 ± 0.11.
AEELALEQAKKESEDQKRLKQAKE [CHCHD3] displayed a protein stability index (treatment: DMSO) of 5.72 ± 0.22 and a protein stability index (treatment: MLN4924 1 uM, 8 h) of 5.41 ± 0.29.
Regarding AEESNPPLQDFPNSISSDKEATVP [MIA2], the protein stability index was found to be 5.41 ± 0.1 (treatment: DMSO) and 5.36 ± 0.25 (treatment: MLN4924 1 uM, 8 h).
For AEGNNQAPGEEEEEEEEATNTHPP [CHGA] the same measures were 5.35 ± 0.43 and 5.61 ± 0.34.
With AEMPHTETVSPLPSSMDLLIQDSP [NANOGP8], the protein stability index (treatment: DMSO) worked out at 5.09 ± 0.19 and the protein stability index (treatment: MLN4924 1 uM, 8 h) is 5.32 ± 0.2.
For AEPDMDDPAYIAVLVLIFNAAKTC [INTS4] the same measures were 2.37 ± 0.47 and 2.12 ± 0.29.
The matching figures for AERLGVTFFEVSPLCNFNIIESFT [RAB40A]: 2.32 ± 0.65 and 2.5 ± 0.46.
The matching figures for AESFLLKSPIAPCSLDKRVILIFH [CDC25B]: 2.75 ± 0.73 and 2.68 ± 0.96.
Regarding AESRELPVRCAGDWLPRGLGWGGR [ALG2], the protein stability index stood at 2.53 ± 0.053 (treatment: DMSO) and 2.54 ± 0.29 (treatment: MLN4924 1 uM, 8 h).
For AFDFDYGNCKYKVDCACLKENPEC [KMT2E], the protein stability index by setting is: (treatment: DMSO) 3.53 ± 0.17; (treatment: MLN4924 1 uM, 8 h) 3.54 ± 0.42.
The matching figures for AFEFKKPVRPVSRGCLHSHGLQEG [CDC25A]: 2.87 ± 0.28 and 2.82 ± 0.23.
Consider AGLDWQSLGQMKELGVIFYNCSCL [PLD5], for which the protein stability index stood at 3.12 ± 0.15 (treatment: DMSO) and 3.26 ± 0.43 (treatment: MLN4924 1 uM, 8 h).
In the case of AGLLIIVLAIIAREGDCAPEEKIW [MAGEA3], the protein stability index amounted to 3.25 ± 0.46 (treatment: DMSO) and 2.8 ± 0.34 (treatment: MLN4924 1 uM, 8 h).
For AGPQSQVLCGVVMDRSLVQDAPLS [ADD1] the same measures were 3.62 ± 0.2 and 3.59 ± 0.11.
On to AGQLMGFFKGIDQDIERGVQSEIF [LYSMD4], for which the protein stability index is, setting by setting: (treatment: DMSO) 2.71 ± 0.33; (treatment: MLN4924 1 uM, 8 h) 2.75 ± 0.34.
For AGRGGAAGTAGVGETGSGDQAGGE [MYOZ1] the same measures were 5.63 ± 0.24 and 5.43 ± 0.32.
For AGRPSLLRHDEVRTYFHEFGHVMH [NLN] the same measures were 2.48 ± 0.13 and 2.45 ± 0.47.
For AHKCLECGKCFSQNTHLTRHQRTH [ZNF263] the same measures were 4.92 ± 0.14 and 5 ± 0.3.
Take AIPIKSWFSDPSDTALLNLLPMLD [CTDNEP1]: the protein stability index runs as follows: (treatment: DMSO) 2.33 ± 0.16; (treatment: MLN4924 1 uM, 8 h) 2.47 ± 0.3.
Consider AKFDFLTRKHHCRRCGKCFCDRCC [ZFYVE21], for which the protein stability index came to 3.08 ± 0.29 (treatment: DMSO) and 3.45 ± 0.44 (treatment: MLN4924 1 uM, 8 h).
With AKNFHVKAVMKTSVLLSWEIPENY [PTPRD], the protein stability index (treatment: DMSO) worked out at 2.89 ± 0.27.
Take AKREETKAMESQRAYRFVQGKDWG [SPOPL]: the protein stability index amounted to 3.09 ± 0.61 (treatment: DMSO) and 3.59 ± 0.37 (treatment: MLN4924 1 uM, 8 h).
For the setting “treatment: MLN4924 1 uM, 8 h”, ALASISHVAHVTITTKTADGKCAY [MLH1] displayed a protein stability index of 2.63 ± 0.3.
Regarding ALKMTWHVHCFTCAACKTPIRNRA [PDLIM7], the protein stability index is, setting by setting: (treatment: DMSO) 2.5 ± 0.51; (treatment: MLN4924 1 uM, 8 h) 2.3 ± 0.58.
The matching figures for ALSYAQHTRQLISCGGDGGIVVWN [WDFY2]: 2.16 ± 0.47 and 2.12 ± 0.23.
For ALVSHPEVPLISFTGSQPTAERIT [ALDH8A1] the same measures were 3.87 ± 0.2 and 3.87 ± 0.31.
For AMTGTFPAYGMSPSLSTITSTSSS [DVL3] the same measures were 3.68 ± 0.24 and 3.61 ± 0.17.
Regarding ANFIEKVRFLEQQNAALRGELSQA [PRPH], the protein stability index (treatment: DMSO) stood at 3.39 ± 0.12 and the protein stability index (treatment: MLN4924 1 uM, 8 h) stood at 3.36 ± 0.39.

For the origin of these results see the supplement of paper PMC10567573.
